Reference: the DeepSol protein solubility set

Assay: soluble on expression in E. coli; label from the status in PepcDB or PDB records

Sequence | soluble on expression in E. coli
MRDMIIVVPIGEVPSDVLSFLSENIESFYMKFGIGVKIIGSLPISAFSHAYDFYRNQYLARHFLPALSIIRRDYKALAVMGVTEVDLYESGLNFIFGIAHPGFGVALISLHRLYPEFYGEPPDRKLLKERALKEAMHELGHVFGLEHCPNPKCVMHFSNSIIDTDIKSWMYCKNCLRKLEERLGRGYVRGRTLEHHHHHH | not soluble
MQITLARIDDRLIHGQVTTVWSKVANAQRIIICNDDVFNDEVRRTLLRQAAPPGMKVNVVSLEKAVAVYHNPQYQDETVFYLFTNPHDVLTMVRQGVQIATLNIGGMAWRPGKKQLTKAVSLDPQDIQAFRELDKLGVKLDLRVVASDPSVNILDKINETAFCE | soluble
MLIDSFEDLDGVIQEIKFRLTRAPMEMGRERECCVLSTSPGCRRAASFPFVGDSSIIQASSLKVRSKSESEALNKMRLTQMNLETVRKRLSESTIKEKDEGSDYQSHSSSSSECEVDDLELFCAGPLELKEEEKLRKSVRFADDCGHELYMVRVATEPSNCPPKLSPSVLRRYRGESFEEEEMTTREPAPVWNLMFKQPAADYVRFRENMETNKVSLENVILNNEAYKVMGTIKVGNIAFEKSVFVRYTMNGWISYMDKAAIYQPSTSKIQDTFKFDLDLPSSVEKIHQIEFCICFKANGTEYWDSNSGTNYVLHCEQQQHPAVPQQRRASLFGSSKYLDRDDAYKLDYNDWGKFASWKALSTDGPYW | soluble
MKEIWLLAESESWDEAKEMLKDAIEIGFDGALVRRDFLERAEKLGRMKIVPIEDAVVKISSAEDQERALQREVVVLKFEDWKVIPLENIVAMKKSGKVIAAVDTIEDAKLALTTLERGADGIAVSGDRETLRKFYEVVKEEGERVELVRARVKEIRPLGVGERVCIDTVTLMTPGEGMLVGNQASFMFLVASESEESEYVASRPFRVNAGSVNAYLKVGDKTRYLAELKAGDEVEVVKFDGAVRKSYVGRVKIERRPLILIRAEVDGVEGSVILQNAETIKLVAPDGKHVSVAELKPGDEILVWLGKKARHFGVEVDEFIVERLEHHHHHH | soluble
NAIQWVEHTDRVINNTNRSMKLSIDMETGMRGFLLTGDQHFLDPYEIAKPLLVAELNGLQDLVKDNPTQQDRFRRLFTMQQEWNVFAQDMIDLRRNNGDFQTPVLAGRGKRITDQIRTEYEQAVEMEQQLRLTRNAE | not soluble
MGSDKIHHHHHHMAKSKIDELMSVGIDIGKDTFHVVAFDPDGHLVMRKRIKRLALVATFEKLPRCVVGMEACLSAHFVSRTLRKMGFEPGIIPAIYVKPFIKGQKNDYNYAEAISEAALRPNLPVVPEKSQEQLDLQALHRVRSRLVSRRTASINQIRAFLIEQGITVRKGLRVLKNSFGKILDERKDEISPRMRTILIGLYGDWLWLDDRIDTVSKEIEQISRTEENCINVMTVPGIGPMISTAMVAAIGTGEAFGRGRDFAAWVGLVPRQYSTGGRTILGRITKRGSRYLRMLFVQAAKVILMRTNRWPDFSFGDWLIKAAERMNRNKLAVALANKLARMA | not soluble
MLERTQVFVDTSYLLASFYNSWEIGARAQLEIDLPEVVATLGNMIHNQLGQPVHRQFWYDGIPESGPHRYQRALRTCDGVQLRAGQLIEWGERRTQKAVDTRLVADMVLAGVRREFTDIVLVSGDADMIPGVQEAVNAGVRVHLYGFGWDSMSSALRHACDSTTILDPREDFSDCMQLEILEGPLPPVVRNPDEEGEEGEFPAAAAEATAAAAEAAADTTVTTDATDNEATPPVPTPEQVAEKSQREAPAAPIPCPQRPGEPALSEEDCMAEVPAKMPKPVAPKPGAHLPAETPAPAPTATPAPTPSSRTVRVTSTVEESLEVTVSNSAEPNVEAEEADTPATPRPAPNPSMMAPRRKLRSRYVPLPNEVWASAGYQTPFDVGQQYALWWFDNAATPEQRDSAHLLSGGGLPPEIDRPLLQFACETLHEYTLTEAQRVGLRDGFHSGIRGVLINNQNS | not soluble
MGSDKIHHHHHHGDDDDPVVPELNKLTKVSCYKDGASSPLFTADINYTSDGKISNINLGVDKLLFIYSDGKFSVTGIHSGEVIEEYTLSGNVITSKKISQENPYASNEIYVSDEYSYRYSGSNWVLTSWNARWPKEFGTGYEERSYPEYEKYTWENGNVVLYAQSLDSREMRYEYSVAEAPKNFPLRVIGSFSPVGFESVTPLNLLYGIQNRNLPIRAYTYTIPNQSEVKAEYKYTYTTVGDYITGMTIDENDGGTASSYKYTFEYNFAVK | not soluble
ASASYYEQYHSLNEIYSWIEFITERHPDMLTKIHIGSSFEKYPLYVLKVSGKEQAAKNAIWIDCGIHAREWISPAFCLWFIGHITQFYGIIGQYTNLLRLVDFYVMPVVNVDGYDYSWKKNRMWRKNRSFYANNHCIGTDLNRNFASKHWCEEGASSSSCSETYCGLYPESEPEVKAVASFLRRNINQIKAYISMHSYSQHIVFPYSYTRSKSKDHEELSLVASEAVRAIEKTSKNTRYTHGHGSETLYLAPGGGDDWIYDLGIKYSFTIELRDTGTYGFLLPERYIKPTCREAFAAVSKIAWHVIRNV | soluble
TLIFDREEKEAGALSGQKGTYVELTDISKNLQNAVIATEDRSFYKNDGINYGRFFLAIVTAGRSGGGSTITQQLAKNAYLSQDQTVERKAKEFFLALELSKKYSKEQILTMYLNNAYFGNGVWGVEDASKKYFGVSASEVSLDQAATLAGMLKGPELYNPLNSV | not soluble
MGSDKIHHHHHHMPTLTINQRLDALLPKLQDARLLSNRGIGNEIGFYIFDYDAEYEPLVQRYVDRLKLQLTSSPSGFASPSLSEQQDRAGSPIQLILLEIDLYKTILDILSERGVLKKAFELEATKGNAALAKTVAPLVRPDQVIAYIQKKLRGDEQLVIMTGVGASWPLLRSHSILNNLHPVLDKIPLVMFFPGSYDGHELRLFDTFKDDNYYRAFPLIPHQQHHL | not soluble
MATESSSPSSVRKVVVHLRATGGAPILKQSKFKIPGTDKFAKVIDFLRRQLHSDSLFVYVNSAFSPNPDESVIDLYNNFGFDGKLVVNYACSMAWG | not soluble
MSLVISIRRSRHEEGEELVAIWCRSVDATHDFLSAEYRTELEDLVRSFLPEAPLWVAVNERDQPVGFMLLSGQHMDALFIDPDVRGCGVGRVLVEHALSMAPELTTNVNEQNEQAVGFYKKVGFKVTGRSEVDDLGKPYPLLNLAYVGAEGGSHHHHHH | soluble
MGSDKIHHHHHHMAMEHVDVLIVGAGLSGIGAAYHLQKHCPGKTYAILEGREAIGGTWDLFRYPGIRSDSDMYTLGYSFKPWKAAKAIADGPSILDYVRETAREHDIDRHIRFQHLVKRASWSSETATWTVEAEHDGKPVTLTCRFLHMCSGYYRYSAGYTPDFAGTERFKGRIVHPQHWPEDLDYSGKKVVVIGSGATAVTLVPEMAKTAAHVTMLQRSPTYVVSRPAEDGIANWLRSKLPAMTAYGITRWKNVLFQLFFFNLARKKPEKVKERLLGMVRDHLGPGYDVETHFTPRYNPWDQRLCLVPDADLFDAIKSGAASVVTDHIETFTETGIQLKSGKTLDADVIVTATGLQLQLLSGMEVVVDGKVADLSQSMSYKGMMFSDVPNLASVFGYTNASWTLKADLTSEYVCRLLNHMDRTGADYCVPRLDGEVEAAPWLDFSSGYITRSIGHFPKQGTRKPWKVHQNYALDLMTLRMGKVEDGVMQFGRKTGATAKAKPEKALEPA | not soluble
MTSDTFPQLPLSYWIESTQFPTFPRLSENIKTKVAIIGAGITGITTAYLLAKEGIDVVLIDSGRILNGTTGHTTAKVTAQHDLIYDELINHFGVEKARLYYESNNQALQFINKTVQTYKIDCNFSNEDSYLYTTTDNGLRNLSKEYEAYQKLNIPCDYVQSLSIPIPVQSALVMKNQAQFHPLLYLKTLLEKFVEMGGKVYEQTTAMDVEKGDYSQIITKEGHHITCEYVVSCSHFPFYDANSFFFTRMYAERSYALAIKAKTEYPGGMYLSIDDPKRSLRYITNNGEKLILIGGESHKTGQGINTMLHYEALYSFAEATFGIDEVSYRWSAQDLITLDKLPYIGHINERNPNIFVATGYRKWGMTTGTAAAHLLKDSILKVHSPYKELYAPSRFHANPDIKTFLSQNIDVAKHLIAGKIETALRKPEDLEVGEGSVVHVNGKRAGAYKDKEGKLHIVDTTCTHLGCEVEWNNGDCTWDCPCHGSRFSIEGDVLEGPADQPLKRVDNELEHHHHHH | soluble
MRLIHLSDIHAGKNLGRVSRNEDVVYALNQVVDFCKENKPDLVLVAGDVFDKANPDNEAKEIIFDFFLKLHSLNIPSVVISGNHDSYEFMKSLKKLLQVIDVYVVPKPNLEECVLDVKGLKIACLPYPSERVLTRAGEDSKLSYAVLVEKAIKYLYEKVKDAPLKVLLSHLFIAGSKYTRTEREATITDYYAVEPSAIPEGFDYVALGHVHRYQRIEKAPTHVYYTGSLFQLDFSEAGQEKFFNFVELKEGEPPHVEAIKLSLKNPLHTFEINQENYAKELEKIKDVQGYIKVHLIVKDKTKMHLVAEKVKEALGEKLIKLELLTPEEAIKKRLEEEREIQKLNLLDLYRDYFKESYGREVPQEIIKTVSQLLEQVHES | soluble
TRGAKDTVMIVNAQGGMEPREVTVAQQQGTNWIVTSGLKDGDKVVVEGISIAGITGAKKVTPKEWASSENQAAAPQSGVQTASEAKPASEAK | not soluble
MGSDKIHHHHHHMGVTCVSQMPVAEGKSVQQTVELLTRKLEMLGAEKQGTFCVDCETYHTAASTLGSQGQTGKLMYVMHNSEYPLSCFALFENGPCLIADTNFDVLMVKLKGFFQSAKASKIETRGTRYQYCDFLVKVGTVTMGPSARGISVEVEYGPCVVASDCWSLLLEFLQSFLGSHTPGAPAVFGNRHDAVYGPADTMVQYMELFNKIRKQQQVPVAGIR | not soluble
MGSDKIHHHHHHMEYINEVTINEAIIHVLDNSSEGVVFNEVELELNEETYEYILKHIQKCLKDEELKYAVFNVERNLAKELSQEYLDGKSDIVSVSKELASQLFVIMKSNGNIPSCDLLTAAITTEYGRMLVVLKMDYVKNYTHNIDVVDDKVEINIIPQFIGLPSSGQKIQKCAFIKPIREENNFDLMVIDKNSGKKDEDEYGSNYFINNYLGCKIINNERDLTKTFVKSAEKWTQKNLKDNADAAELVRTSIKKRLKEDDSININEVSDEIFGENKEAKDNFVEFIKKQGIEEKIELDKQWVENKMKRTRLKIDKDIDLYINEETYNDSSRFEIKRNGDGTINMIIKQVRNYVEK | not soluble
MKNIATGGVLERIRRLAPPHVTAPFRTVAEWREWQLAEGQKRCEEINRQNRQLRVEKILNRSGIQPLHRKCSFANYQVQNDGQRYALSQAKSIADELVTGCTNFAFSGKPGTGKNHLAAAIGNRLLKDGQTVIVVTVADVMSALHASYDDGQSGEKFLRELCEVDLLVLDEIGIQRETKNEQVVLHQIVDRRTASMRSVGMLTNLNYEAMKTLLGERIMDRMTMNGGRWVNFNWESWRPNVGQPGIEK | soluble
MGSDKIHHHHHHMFTPRGFKFAGVHCKIKRKRKDLGIIFSEVPCVAAGVFTTNVVKAAPVIYDMEILKKNPNGIKAVVVNSGVANACTGEQGMINARRMAEKTAEELGVPVESVLVSSTGVIGVQLPMDKVENGIEEAARVLSNDPLPFAEAIMTTDTKVKMHSTKVMIDGKEITVLGIAKGSGMIHPNMATMLSFITTDAKISEEALKKLLKLSVDDSYNMIDVDGDTSTNDMVIVLANGLAGNTTIQPETDGFWKLYEAVHEVNQVLAEKIVEDGEGATKVMEVHVINAPDIKSARLIARSIVSSNLVKTAIYGEDANWGRVIAAAGYSGATFDPEKLDLFFESEAGRIKVAENGQGVSFDEEEAKKILSEKKIRIILDMKQGKETAKAWGCDLTEKYVEINGRYRT | not soluble
